Legend:
[1] = test system: EGFR-wild-type non-small cell lung cancer (NSCLC)
Description: A group participating in the study was comprised of 132 patients with wild-type epidermal growth factor receptor (EGFR) who progressed on ≧1 platinum-based standard of care therapy and were EGFR tyrosine kinase inhibitor (TKI)-naïve. […] Data were collected at 10+ months.
BM+ patients were defined as having detectable HRG mRNA by RNA-ISH (RNA in situ hybridization) as described above in Example 1.

[2] = cited from earlier work
[3] = test system: locally advanced or metastatic ER+ and/or PR+, HER2 negative breast cancer; test: Randomized, double-blind phase 2 trial of exemestane +/- MM-121 in breast cancer (Example 6)
Protocol: This population is for safety analyses, as well as the primary population for all efficacy parameters.
Analyses were performed on the five pre-specified primary biomarkers, all mechanistically linked to ErbB3 signaling, as measured in FFPE archived tissue blocks. Biomarkers were assessed based on local HR scans. Thresholds for defining biomarker profile positive populations were chosen based on these scans and on results obtained in the above-described ovarian cancer trial. A single two-variable model was assessed using HRG and ErbB2, based on the findings from the above-described ovarian cancer trial. HRs in the biomarker profile positive and negative populations were calculated using a Cox proportional hazard model that included biomarker groups by treatment and stratification factors as additive factors. Only patients with non-missing biomarkers were used in each calculation.
Both assays were performed using FFPE archived tissue blocks.
Biomarker profile positive (BM+) and biomarker profile negative (BM−) subpopulations were defined by dichotomizing biomarker values for HRG and ErbB2. For HRG, a cut point of −5 (RT-PCR score) was chosen based on the local HR scan (value at which HR=1). […] Two separate analyses of ErbB2 levels are provided: (1) ErbB2 levels based on the qIHC assay; and (2) for patients where qIHC data are missing, but HCT results were available, ErbB2 levels were adapted from the reported HCT results, with a score of HCT 2+ being deemed equal to log10(ErbB2)=5.1.
All efficacy analyses for the BM subgroups were performed using a Cox proportional hazard model that included both of the pre-specified strata as additive effects in combination with the treatment effect. The ErbB2 low & HRG high BM+ subpopulation was defined as patients with log10(ErbB2)≦5.1 and HRG RT-PCR>−5.

[4] = test system: advanced, platinum-resistant ovarian cancer; test: Clinical trial in ovarian cancer: paclitaxel with or without MM-121 (Example 5); format: in vivo, human
Protocol: A clinical trial was performed that was designed to allow, inter alia, determination of associations between biomarker profiles and clinical responses. Biomarker data were measured in pre-treatment biopsies and (when available) in archived tumor samples. Results pertaining to predictive biomarkers measured in pre-treatment biopsies are described herein.
In total, six primary biomarkers were measured using 15 assays. For the 5 chromogenic assays (qIHC and RNA-ISH), two different overall scores were used: composite score and top-10 score. Accordingly, 20 different variables were assessed at this stage. A Cox proportional hazard model was used to rank the biomarkers. This method determines if PFS varies with biomarker values differently in the treatment arm relative to the control arm. A P-value cutoff of 0.4 was used to determine which biomarkers would be prioritized for subsequent bivariate analyses.
Based on these two thresholds, a biomarker profile positive (BM+) subpopulation is defined for subsequent analyses as: (ErbB2 levels≦log10 5.1) AND (HRG score≧1) (“ErbB2 low” AND “HRG positive”). Accordingly, a biomarker profile negative (BM−) subpopulation is defined as (ErbB2 levels >log10 5.1) OR (HRG score<1) This definition results in a BM+ prevalence of 34% in the clinical trial population.
In FIG. 8G (progression free survival at 10+ months) and FIG. 8H (overall survival at 10+ months), the treatment arm is represented by a blue line and the control arm is represented by a black line.

[5] = best overall response, BM+ (heregulin+) as worded in FIG. 11 legend
[6] = safety population, count (percentage)

C#Cc1cccc(Nc2ncnc3cc(OCCOC)c(OCCOC)cc23)c1 [erlotinib]
complete response (CR) [1, 5]: none
partial response (PR) [1, 5]: 6.7%
progressive disease (PD) [1, 5]: 53.3%
PFS of BM− (heregulin−) patients compared with BM+ (heregulin+) patients ([1]; patients treated with erlotinib alone (FIG. 12C)): much longer

C=C1C[C@@H]2[C@H](CC[C@]3(C)C(=O)CC[C@@H]23)[C@@]2(C)C=CC(=O)C=C12 [exemestane, 6-methylenandrosta-1,4-diene-3,17-dione, reference compound]
solubility in N,N-dimethylformamide ([2]; N,N-dimethylformamide): freely soluble
solubility in methanol ([2]; methanol): soluble
solubility in water ([2]; water): practically insoluble
objective response rate ([3]; BM+ patients): 0%
objective response rate ([3]; BM− patients): 5.9%
time within which all treated patients exhibited disease progression ([3]; biomarker profile positive tumors (FIG. 10B)): ≤ 20 weeks
PFS of BM− (heregulin−) patients compared with BM+ (heregulin+) patients ([3]; patients treated with exemestane alone (FIG. 10E)): much longer
Subjects with CTCAE grade 3 or higher TEAE [3, 6]: 15 ( 25.4)
Subjects with TEAE leading to death [3, 6]: 1 ( 1.7)
Subjects with TEAE leading to dose discontinuation [3, 6]: 0
Subjects with TEAE related to study drug (a) [3, 6]: 32 ( 54.2)
Subjects with at least one AE [3, 6]: 51 ( 86.4)
Subjects with at least one TEAE [3, 6]: 50 ( 84.7)
Subjects with serious TEAE [3, 6]: 11 ( 18.6)

CC(=O)O[C@H]1C(=O)[C@@]2(C)[C@H]([C@H](OC(=O)c3ccccc3)[C@]3(O)C[C@H](OC(=O)[C@H](O)[C@@H](NC(=O)c4ccccc4)c4ccccc4)C(C)=C1C3(C)C)[C@]1(OC(C)=O)CO[C@@H]1C[C@@H]2O [paclitaxel, Paclitaxel, reference compound]
PFS of BM− (heregulin−) patients compared with BM+ (heregulin+) patients ([4]; patients treated with paclitaxel alone (FIG. 8I)): much longer

B1: MM-121: anti-ErbB3 monoclonal antibody having VH and VL sequences as shown in SEQ ID NOs: 1 and 2 (antibody, V domains shown)
VH: EVQLLESGGGLVQPGGSLRLSCAASGFTFSHYVMAWVRQAPGKGLEWVSSISSSGGWTLYADSVKGRFTISRDNSKNTLYLQMNSLRAEDTAVYYCTRGLKMATIFDYWGQGTLVTVSS
VL: QSALTQPASVSGSPGQSITISCTGTSSDVGSYNVVSWYQQHPGKAPKLIIYEVSQRPSGVSNRFSGSKSGNTASLTISGLQTEDEADYYCCSYAGSSIFVIFGGGTKVTVL
HR (trt:ctrl) ([4]; BM+, subgroup ErbB3 score ≧2): 0.33
HR (trt:ctrl) ([4]; BM+, subgroup ErbB4 score 0): 0.13
HR (trt:ctrl) ([4]; BM−, subgroup ErbB4 score ≧1): 2.20
cumulative HR ([4]; patients with detectable levels of HRG and low levels of ErbB2): < 0.5
HR ([3]; Group ErbB2 < 5.1 (HCT), BM negative): 3.00
HR ([3]; Group ErbB2 < 5.1 (HCT), BM population): 0.82
HR ([3]; Group ErbB2 < 5.1 (HCT), BM positive): 0.62
HR ([3]; Group ErbB2 < 5.1 (qIHC) & HRG > −5, BM negative): 1.30
HR ([3]; Group ErbB2 < 5.1 (qIHC) & HRG > −5, BM population): 0.86
HR ([3]; Group ErbB2 < 5.1 (qIHC) & HRG > −5, BM positive): 0.32
HR ([3]; Group ErbB2 < 5.1 (qIHC), BM negative): 3.00
HR ([3]; Group ErbB2 < 5.1 (qIHC), BM population): 1.16
HR ([3]; Group ErbB2 < 5.1 (qIHC), BM positive): 0.84
HR ([3]; Group HRG > −5, BM negative): 0.99
HR ([3]; Group HRG > −5, BM population): 0.68
HR ([3]; Group HRG > −5, BM positive): 0.35
benefit (PFS) from adding MM-121 to exemestane therapy ([3]; biomarker negative patient population (FIG. 10A)): little if any benefit
benefit (PFS) from adding MM-121 to exemestane therapy ([3]; biomarker positive population (FIG. 10B)): dramatic benefit
decrease in risk of death ([3]; full patient population, overall survival, vs standard-of-care arm): 59%
decrease in risk of progression ([3]; heregulin-positive patients, n=34, final analysis): 74%
HR ([3]; no selection, BM population N=115): 0.75
PFS versus erlotinib alone ([1]; unselected overall population (FIG. 12A)): overall better outcomes
